# Measurements: patent CN111171150A (BEIJING ZHIREN MEIBO BIOTECHNOLOGY CO LTD, dated 2020)
# T1: mfTSLP (cynomolgus monkey (Macaca fascicularis))
# T1 construct: also called 猴TSLP; 食蟹猴TSLP
# T1 chain: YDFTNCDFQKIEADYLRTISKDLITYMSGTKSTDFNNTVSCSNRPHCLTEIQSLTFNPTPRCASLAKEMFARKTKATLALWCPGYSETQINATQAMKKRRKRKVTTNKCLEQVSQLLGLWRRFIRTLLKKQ
# T2: mTSLP-mFc (mouse (mus musculus))
# T2 construct: also called 小鼠TSLP
# T2 chain: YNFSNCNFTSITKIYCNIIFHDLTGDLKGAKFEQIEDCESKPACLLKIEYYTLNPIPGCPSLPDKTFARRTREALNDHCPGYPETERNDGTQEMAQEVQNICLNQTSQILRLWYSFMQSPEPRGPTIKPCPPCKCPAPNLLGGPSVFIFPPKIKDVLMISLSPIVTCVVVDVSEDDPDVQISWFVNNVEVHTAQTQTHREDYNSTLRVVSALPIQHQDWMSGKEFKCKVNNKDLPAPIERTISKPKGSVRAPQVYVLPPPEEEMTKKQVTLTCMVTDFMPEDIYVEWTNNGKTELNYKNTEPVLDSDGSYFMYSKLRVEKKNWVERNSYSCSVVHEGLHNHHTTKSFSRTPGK
# T3: mfTSLP1-m-mFc (cynomolgus monkey (Macaca …))
# T3 construct: also called 食蟹猴TSLP
# T3 chain: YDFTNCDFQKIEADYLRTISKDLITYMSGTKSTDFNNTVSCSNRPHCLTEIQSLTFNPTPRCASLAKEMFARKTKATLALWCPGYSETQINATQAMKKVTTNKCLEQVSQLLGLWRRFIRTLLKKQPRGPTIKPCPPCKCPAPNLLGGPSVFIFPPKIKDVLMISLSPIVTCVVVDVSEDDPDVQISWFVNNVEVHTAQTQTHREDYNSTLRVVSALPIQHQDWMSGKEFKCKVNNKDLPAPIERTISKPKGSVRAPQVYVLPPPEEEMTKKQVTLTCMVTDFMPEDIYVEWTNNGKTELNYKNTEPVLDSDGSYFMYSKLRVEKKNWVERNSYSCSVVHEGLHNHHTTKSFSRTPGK
# T4: hTSLP1-m-mFc (human (homo sapiens)); mouse (mus …, limits assumed)
# T4 construct: also called 人TSLP
# T4 chain: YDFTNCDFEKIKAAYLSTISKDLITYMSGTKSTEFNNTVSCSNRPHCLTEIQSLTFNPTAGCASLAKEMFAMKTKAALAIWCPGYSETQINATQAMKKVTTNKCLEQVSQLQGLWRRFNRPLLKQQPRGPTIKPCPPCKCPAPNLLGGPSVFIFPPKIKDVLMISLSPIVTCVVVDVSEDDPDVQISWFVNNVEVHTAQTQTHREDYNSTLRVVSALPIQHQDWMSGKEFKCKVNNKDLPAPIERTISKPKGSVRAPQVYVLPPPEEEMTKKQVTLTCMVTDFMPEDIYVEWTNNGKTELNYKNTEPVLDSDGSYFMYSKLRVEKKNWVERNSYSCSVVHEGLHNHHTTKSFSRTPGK
# Tests used:
# [1] = target: T5, hTSLP1-m-His (human (homo sapiens), UniProt Q969D9 29-159); assay: SPR (Biacore X100) as in Example 3.1, antibody captured, hTSLP as analyte
# T5 construct: Long version of the human TSLP extracellular region, furin site deleted, His tag at the C-terminus, made in HEK293; also called hTSLP-m-his; not shown: C-terminal His tag
# [2] = target: T5, hTSLP1-m-His; assay: SPR (Biacore X100), antibody captured by anti-human IgG (Fc) on CM5, hTSLP1-m-his as analyte, 25 C, 1:1 fit
# [3] = target: T1, mfTSLP; assay: SPR (Biacore X100) as in Example 3.1, antibody captured, mfTSLP as analyte
# [4] = target: T2, mTSLP-mFc; assay: ELISA on coated mTSLP-mFc (1 μg/mL), HRP anti-human IgG
# [5] = target: T3, mfTSLP1-m-mFc; assay: ELISA on coated mfTSLP1-m-mFc (1 μg/mL), HRP anti-human IgG
# [6] = target: T4, hTSLP1-m-mFc; assay: ELISA on coated hTSLP1-m-mFc (1 μg/mL), HRP anti-human IgG
# [7] = target: T5, hTSLP1-m-His; assay: competition ELISA on coated hTSLP1-m-his; competitor Tezepelumab-mIgG2a; HRP anti-human IgG
Binder,Kd [3] [nM],binding result [4],binding result [5],binding result [6],binding result [7],also measured
"S2B1-IgG4 (antibody, V domains shown) VH: EVKLQQSGAELVRPGSSVKISCKASGYAFSNYWMNWVKQRPGQGLEWIGQIFPGDGDTDYNGKFKGKATLTADKSSSTAYMQLSSLTSEDSAVYFCARAGYYRGYYAMDYWGQGTSVTVSA VL: EIVLTQSPALMAASPGEKVTITCSVSSSISSSNLHWYQQKSETSPKPWIYGTSNLASGVPVRFSGSGSGTSYSLTISSMEAEDAATYYCQQWSSYPLTFGAGTKLEIK",,,,,,Kd [1]: 0.012 nM; Kd [2]: 0.0092 nM
"Tezepelumab (antibody, V domains shown, also called AMG 157; MEDI9929) VH: QMQLVESGGGVVQPGRSLRLSCAASGFTFRTYGMHWVRQAPGKGLEWVAVIWYDGSNKHYADSVKGRFTITRDNSKNTLNLQMNSLRAEDTAVYYCARAPQWELVHEAFDIWGQGTMVTVSS VL: SYVLTQPPSVSVAPGQTARITCGGNNLGSKSVHWYQQKPGQAPVLVVYDDSDRPSWIPERFSGSNSGNTATLTISRGEAGDEADYYCQVWDSSSDHVVFGGGTKLTVL",0.00816,,,,,
"H1A10+L3E8-M1 (antibody, human IgG4, V domains shown, also called L3E8人源化突变体; 人源化抗TSLP单克隆抗体) VH: QVQLVQSGAEVKKPGASVKVSCKASGYAFSNYWMNWVRQAPGQGLEWMGQIFPGDSDTDYDQKFQGRVTMTRDTSTSTVYMELSSLRSEDTAVYYCARAGYYRGYYAMDYWGQGTTVTVSS VL: EIVMTQSPATLSVSPGERATLSCSVSSSISSSNLHWYQQKPGQAPRPWIYGTSNLASGIPARFSGSGSGTEFTLTISSLQSEDFAVYYCQQWSSYPLTFGQGTKLEIK",2.66,no binding,binds,binds,,
"H1A10+L3E8-M1-IgG1m3 (antibody, V domains shown, IgG1m3 version; also called L3E8人源化突变体(IgG1m3版本)) VH: QVQLVQSGAEVKKPGASVKVSCKASGYAFSNYWMNWVRQAPGQGLEWMGQIFPGDSDTDYDQKFQGRVTMTRDTSTSTVYMELSSLRSEDTAVYYCARAGYYRGYYAMDYWGQGTTVTVSS VL: EIVMTQSPATLSVSPGERATLSCSVSSSISSSNLHWYQQKPGQAPRPWIYGTSNLASGIPARFSGSGSGTEFTLTISSLQSEDFAVYYCQQWSSYPLTFGQGTKLEIK",,,,,binds,
"H1A10+L3E8-M2-IgG1m3 (antibody, V domains shown, IgG1m3 version; also called L3E8人源化突变体(IgG1m3版本)) VH: QVQLVQSGAEVKKPGASVKVSCKASGYAFSNYWMNWVRQAPGQGLEWMGQIFPGDSDTDYDQKFQGRVTMTRDTSTSTVYMELSSLRSEDTAVYYCARAGYYRGYYAMDYWGQGTTVTVSS VL: EIVMTQSPATLSVSPGERATLSCSVSSSISSSNLHWYQQKPGQAPKPWIYGTSNLASGIPARFSGSGSGTEFTLTISSLQSEDFAVYYCQQWSSYPLTFGQGTKLEIK",,,,,binds,
"H1A10+L3E8 (antibody, V domains shown) VH: QVQLVQSGAEVKKPGASVKVSCKASGYAFSNYWMNWVRQAPGQGLEWMGQIFPGDSDTDYDQKFQGRVTMTRDTSTSTVYMELSSLRSEDTAVYYCARAGYYRGYYAMDYWGQGTTVTVSS VL: EIVMTQSPATLSVSPGERATITCSVSSSISSSNLHWYQQKPGQAPKPWIYGTSNLASGIPARFSGSGSGTEFSLTISSVEAEDAAVYYCQQWSSYPLTFGQGTKLEIK",,no binding,binds,binds,,
"H1A10+L3E8-M4 (antibody, IgG4, V domains shown, also called L3E8人源化突变体) VH: QVQLVQSGAEVKKPGASVKVSCKASGYAFSNYWMNWVRQAPGQGLEWMGQIFPGDSDTDYDQKFQGRVTMTRDTSTSTVYMELSSLRSEDTAVYYCARAGYYRGYYAMDYWGQGTTVTVSS VL: EIVMTQSPATLSVSPGERATLSCSVSSSISSSNLHWYQQKPGQAPRPWIYGTSNLASGIPARFSGSGSGTEFTLTISSMEAEDFAVYYCQQWSSYPLTFGQGTKLEIK",2.63,no binding,binds,binds,,
"H1A10+L3E8-M3-IgG1m3 (antibody, V domains shown, IgG1m3 version; also called L3E8人源化突变体(IgG1m3版本)) VH: QVQLVQSGAEVKKPGASVKVSCKASGYAFSNYWMNWVRQAPGQGLEWMGQIFPGDSDTDYDQKFQGRVTMTRDTSTSTVYMELSSLRSEDTAVYYCARAGYYRGYYAMDYWGQGTTVTVSS VL: EIVMTQSPATLSVSPGERATITCSVSSSISSSNLHWYQQKPGQAPRPWIYGTSNLASGIPARFSGSGSGTEFTLTISSLQSEDFAVYYCQQWSSYPLTFGQGTKLEIK",,,,,binds,
"H1A10+L3E8-M3 (antibody, IgG4, V domains shown, also called L3E8人源化突变体) VH: QVQLVQSGAEVKKPGASVKVSCKASGYAFSNYWMNWVRQAPGQGLEWMGQIFPGDSDTDYDQKFQGRVTMTRDTSTSTVYMELSSLRSEDTAVYYCARAGYYRGYYAMDYWGQGTTVTVSS VL: EIVMTQSPATLSVSPGERATITCSVSSSISSSNLHWYQQKPGQAPRPWIYGTSNLASGIPARFSGSGSGTEFTLTISSLQSEDFAVYYCQQWSSYPLTFGQGTKLEIK",2.37,no binding,binds,binds,,
"H1A10+L3E8-M2 (antibody, IgG4, V domains shown, also called L3E8人源化突变体) VH: QVQLVQSGAEVKKPGASVKVSCKASGYAFSNYWMNWVRQAPGQGLEWMGQIFPGDSDTDYDQKFQGRVTMTRDTSTSTVYMELSSLRSEDTAVYYCARAGYYRGYYAMDYWGQGTTVTVSS VL: EIVMTQSPATLSVSPGERATLSCSVSSSISSSNLHWYQQKPGQAPKPWIYGTSNLASGIPARFSGSGSGTEFTLTISSLQSEDFAVYYCQQWSSYPLTFGQGTKLEIK",2.59,no binding,binds,binds,,
"H1A10+L3E8-M4-IgG1m3 (antibody, V domains shown, IgG1m3 version; also called L3E8人源化突变体(IgG1m3版本)) VH: QVQLVQSGAEVKKPGASVKVSCKASGYAFSNYWMNWVRQAPGQGLEWMGQIFPGDSDTDYDQKFQGRVTMTRDTSTSTVYMELSSLRSEDTAVYYCARAGYYRGYYAMDYWGQGTTVTVSS VL: EIVMTQSPATLSVSPGERATLSCSVSSSISSSNLHWYQQKPGQAPRPWIYGTSNLASGIPARFSGSGSGTEFTLTISSMEAEDFAVYYCQQWSSYPLTFGQGTKLEIK",,,,,binds,
